Patent US20160304622A1 (GENEFRONTIER, published 2016)

How the values were obtained:
Test in all cases: immunoblotting after reducing SDS-PAGE
[1] = molecular target: T1, recombinant human ADAM12 (Mochida Pharmaceutical Co., Ltd.) (human, UniProt O43184 208-708, limits assumed)
T1 sequence (looked up): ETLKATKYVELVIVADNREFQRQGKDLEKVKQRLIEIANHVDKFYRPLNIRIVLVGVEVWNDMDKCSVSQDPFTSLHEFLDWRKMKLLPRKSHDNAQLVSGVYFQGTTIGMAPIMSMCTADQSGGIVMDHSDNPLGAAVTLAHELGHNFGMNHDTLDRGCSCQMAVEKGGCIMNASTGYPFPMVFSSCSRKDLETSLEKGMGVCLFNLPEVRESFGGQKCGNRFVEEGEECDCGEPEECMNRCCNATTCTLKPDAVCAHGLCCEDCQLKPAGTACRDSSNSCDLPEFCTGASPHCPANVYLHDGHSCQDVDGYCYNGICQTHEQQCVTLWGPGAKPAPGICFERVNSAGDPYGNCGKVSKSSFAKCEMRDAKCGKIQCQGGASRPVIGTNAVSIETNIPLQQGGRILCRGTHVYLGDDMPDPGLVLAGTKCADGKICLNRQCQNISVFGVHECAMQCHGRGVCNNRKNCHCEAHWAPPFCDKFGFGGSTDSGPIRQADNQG
From the text: (§1) Recombinant proteins of human ADAMTS1 (R&D Systems), ADAMTS4, ADAMTS5 (R&D Systems), ADAMTS15 (R&D Systems), ADAM10 (R&D Systems), ADAM12 (Mochida Pharmaceutical Co., Ltd., Tokyo, Japan), ADAM17 (R&D Systems) and MMP-13 (Millipore, Billerica, Mass.) and purified human MMP-1, MMP-2, MMP-3 and MMP-9 (Daiichi Fine Chemical, Co., Ltd., Toyama, Japan) were subjected to sodium dodecyl sulfate-polyacrylamide gel electrophoresis (SDS-PAGE) under reducing conditions, and the samples resolved on the gels were transferred onto polyvinylidene difluoride (PVDF) membranes. […] After washing with phosphate buffered saline containing 0.1% Tween 20, the membranes were reacted with horseradish peroxidase-conjugated secondary antibody against human IgG (Invitrogen, Carlsbad, Calif.) for 1 h at room temperature. A chemiluminescence reagent (Pierce ECL western blotting substrate; Thermo Fisher Scientific, Waltham, Mass.) was used to make the labeled protein bands visible. All the samples were also examined on silver-stained gels, which were prepared by silver stain kit (Cosmo Bio Co., Ltd, […].).

[2] = molecular target: T2, purified human MMP-1 (Daiichi Fine Chemical) (human, UniProt P03956 20-469, limits assumed)
T2 sequence (looked up): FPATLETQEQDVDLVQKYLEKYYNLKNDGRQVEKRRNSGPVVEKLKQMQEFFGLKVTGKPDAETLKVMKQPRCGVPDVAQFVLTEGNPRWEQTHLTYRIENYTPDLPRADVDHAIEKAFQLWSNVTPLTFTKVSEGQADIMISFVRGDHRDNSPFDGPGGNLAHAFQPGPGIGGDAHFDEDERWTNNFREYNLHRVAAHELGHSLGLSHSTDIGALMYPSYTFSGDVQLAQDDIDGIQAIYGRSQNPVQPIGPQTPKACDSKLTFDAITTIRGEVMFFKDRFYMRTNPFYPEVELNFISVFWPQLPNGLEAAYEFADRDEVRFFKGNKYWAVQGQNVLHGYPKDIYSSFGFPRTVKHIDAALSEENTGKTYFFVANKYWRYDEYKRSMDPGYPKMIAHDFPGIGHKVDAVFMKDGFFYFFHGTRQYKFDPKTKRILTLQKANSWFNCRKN
From the text: as §1

[3] = molecular target: purified human MMP-9 (Daiichi Fine Chemical) (human, UniProt P14780 20-707, limits assumed)
purified human MMP-9 (Daiichi Fine Chemical), sequence (P14780 20-707 limits assumed): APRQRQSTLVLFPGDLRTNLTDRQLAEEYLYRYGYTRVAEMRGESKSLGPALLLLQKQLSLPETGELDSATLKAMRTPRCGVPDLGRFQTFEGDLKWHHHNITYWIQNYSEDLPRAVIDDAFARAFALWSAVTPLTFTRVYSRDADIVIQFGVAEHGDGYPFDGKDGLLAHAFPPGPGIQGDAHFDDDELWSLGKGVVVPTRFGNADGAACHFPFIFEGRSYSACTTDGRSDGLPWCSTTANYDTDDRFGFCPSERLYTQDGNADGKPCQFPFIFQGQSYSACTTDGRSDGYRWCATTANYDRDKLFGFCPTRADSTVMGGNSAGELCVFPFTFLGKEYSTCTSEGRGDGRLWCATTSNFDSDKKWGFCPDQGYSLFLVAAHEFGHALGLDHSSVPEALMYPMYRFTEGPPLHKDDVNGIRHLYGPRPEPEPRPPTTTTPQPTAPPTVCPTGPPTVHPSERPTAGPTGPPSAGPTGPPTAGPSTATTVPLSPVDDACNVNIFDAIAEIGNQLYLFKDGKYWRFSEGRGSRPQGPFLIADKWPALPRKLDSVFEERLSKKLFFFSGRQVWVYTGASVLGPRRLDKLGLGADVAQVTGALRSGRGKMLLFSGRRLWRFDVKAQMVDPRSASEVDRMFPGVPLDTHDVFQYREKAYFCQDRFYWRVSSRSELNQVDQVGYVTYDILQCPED
From the text: as §1

[4] = molecular target: T3, recombinant human ADAM10 (R&D Systems) (human, UniProt O14672 214-672, limits assumed)
T3 sequence (looked up): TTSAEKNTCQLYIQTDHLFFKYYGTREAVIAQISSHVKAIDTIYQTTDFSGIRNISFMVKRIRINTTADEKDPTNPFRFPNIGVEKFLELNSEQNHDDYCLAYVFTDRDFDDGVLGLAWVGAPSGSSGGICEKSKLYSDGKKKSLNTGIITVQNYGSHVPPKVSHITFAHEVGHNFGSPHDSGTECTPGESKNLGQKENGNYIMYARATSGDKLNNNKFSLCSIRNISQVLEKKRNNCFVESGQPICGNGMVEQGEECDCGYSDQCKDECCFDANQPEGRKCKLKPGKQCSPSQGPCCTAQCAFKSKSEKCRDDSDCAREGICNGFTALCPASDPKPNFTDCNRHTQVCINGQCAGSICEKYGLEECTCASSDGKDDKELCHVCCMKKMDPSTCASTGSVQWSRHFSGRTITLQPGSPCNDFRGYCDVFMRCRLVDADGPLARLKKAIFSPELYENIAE
From the text: as §1

[5] = molecular target: recombinant human MMP-13 (Millipore) (human, UniProt P45452 20-471, limits assumed)
From the text: as §1

Measured: binding result

B1: Fab of clone 237-53 (Fab, V domains shown)
VH: QVQLVQSGAEVKKPGSSVKVSCKASGGTFSSFAISWVRQAPGQGLEWMGGIFPIFGQANYAQKFQGRVTITADESTSTAYMELSSLRSEDTAVYYCARFSDWWEWQMDYWGQGTLVTVSS
VL: DIVMTQSPDSLAVSLGERATINCRSSQSILYSSNNNYLAWYQQKPGQPPKLLIHTASARESGVPDRFSGSGSGTDFTLTISSLQAEDVAVYYCQQYYSVSITFGQGTKVEIKR
no binding (tested: 5 µg/ml): [1] | [2] | [3] | [4] | [5]
